The text below walks through data of patent publication US20210163536A1.

human melanocortin-3 receptor (human), sequence (P41968 whole entry): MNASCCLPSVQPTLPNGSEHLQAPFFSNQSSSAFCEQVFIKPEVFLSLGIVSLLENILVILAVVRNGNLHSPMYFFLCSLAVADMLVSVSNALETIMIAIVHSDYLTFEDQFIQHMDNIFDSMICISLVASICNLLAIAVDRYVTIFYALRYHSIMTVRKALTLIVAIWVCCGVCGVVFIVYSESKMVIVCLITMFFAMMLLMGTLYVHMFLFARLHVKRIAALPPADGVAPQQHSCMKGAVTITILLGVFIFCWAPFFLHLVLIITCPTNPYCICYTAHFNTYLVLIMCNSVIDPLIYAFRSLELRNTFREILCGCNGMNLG

One test deals with human melanocortin-5 receptor (human) (UniProt P33032). Put plainly: competition with [125I]-NDP-alpha-MSH, CHO-K1 cell membranes.
human melanocortin-5 receptor (human), sequence (P33032 whole entry): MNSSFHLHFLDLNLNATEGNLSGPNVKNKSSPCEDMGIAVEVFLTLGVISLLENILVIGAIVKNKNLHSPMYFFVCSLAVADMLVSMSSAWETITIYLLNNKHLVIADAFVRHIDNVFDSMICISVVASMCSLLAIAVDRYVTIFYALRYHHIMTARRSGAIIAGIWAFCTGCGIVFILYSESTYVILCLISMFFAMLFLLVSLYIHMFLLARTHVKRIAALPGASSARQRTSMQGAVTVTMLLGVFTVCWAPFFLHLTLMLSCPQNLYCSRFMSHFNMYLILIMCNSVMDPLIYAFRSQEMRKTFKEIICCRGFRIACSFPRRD
Regarding “cyclo[Hydantoin(C(O)-(Asp-A3c))-D-2-Nal-Arg-Trp-Lys]-NH2 (peptide)”, the Ki (as a rule, a measure of affinity in units of concentration, obtained from inhibition or displacement) was 2880 nM.

Consider “cyclo[Hydantoin(C(O)-(Asp-Aic))-D-2-Nal-Arg-Trp-Lys]-NH2 (peptide)”, for which the inhibition constant (Ki) amounted to 1160 nM.

For “cyclo[Hydantoin(C(O)-(Asp-D-Ala))-His-D-Phe-Arg-Trp-Orn]-NH2 (peptide)”, the Ki is 6400 nM.

For “Hydantoin(C(O)-(Nle-Gly))-cyclo(Cys-D-Ala-His-D-Phe-Arg-Trp-Pen)-NH2 (peptide)”, the Ki is 27.1 nM.

For “cyclo[Hydantoin(C(O)-(Glu-D-Ala))-His-D-Phe-Arg-Trp-Dab]-NH2 (peptide)”, the Ki was 877 nM.

The substance “cyclo[Hydantoin(C(O)-(Asp-A6c))-D-2-Nal-Arg-Trp-Lys]-NH2 (peptide)” showed a Ki of 451 nM.

With “Hydantoin(C(O)-(D-Arg-Gly))-cyclo(Cys-Glu-His-D-Phe-Arg-Trp-Cys)-NH2 (peptide)”, the Ki came to 2260 nM.

In turn, “Hydantoin(C(O)-(Gly-D-Arg))-cyclo(Cys-Glu-His-D-Phe-Arg-Trp-Cys)-NH2 (peptide)” displayed a Ki of 4540 nM.

A further test concerns the target human melanocortin-3 receptor (human) (UniProt P41968). The description is as above.
The substance “cyclo[Hydantoin(C(O)-(Asp-A3c))-D-2-Nal-Arg-Trp-Lys]-NH2 (peptide)” returned a Ki of 1920 nM.

Take “cyclo[Hydantoin(C(O)-(Asp-Aic))-D-2-Nal-Arg-Trp-Lys]-NH2 (peptide)”: the Ki worked out at 2630 nM.

Turning to “cyclo[Hydantoin(C(O)-(Asp-D-Ala))-His-D-Phe-Arg-Trp-Orn]-NH2 (peptide)”, the Ki turned out to be 576 nM.

The substance “cyclo[Hydantoin(C(O)-(Asp-Apc))-D-2-Nal-Arg-Trp-Lys]-NH2 (peptide)” returned a Ki of 2760 nM.

“cyclo[Hydantoin(C(O)-(Glu-D-Ala))-His-D-Phe-Arg-Trp-Orn]-NH2 (peptide)”: the Ki was found to be 2840 nM.

On to “cyclo[Hydantoin(C(O)-(Glu-D-Ala))-His-D-Phe-Arg-Trp-Dap]-NH2 (peptide)”, for which the Ki turned out to be 863 nM.

Substance “cyclo[Hydantoin(C(O)-(Glu-D-Ala))-His-D-Phe-Arg-Trp-Dab]-NH2 (peptide)” showed a Ki of 90.5 nM.

“cyclo[Hydantoin(C(O)-(Asp-D-Ala))-His-D-Phe-Arg-Trp-Dap]-NH2 (peptide)” returned a Ki of 1820 nM.

For “cyclo[Hydantoin(C(O)-(Asp-A5c))-D-2-Nal-Arg-Trp-Lys]-NH2 (peptide)”, the inhibition constant (Ki) amounted to 2390 nM.

“cyclo[Hydantoin(C(O)-(Asp-A6c))-D-2-Nal-Arg-Trp-Lys]-NH2 (peptide)” registered a Ki of 1480 nM.

As to “Hydantoin(C(O)-(D-Arg-Gly))-cyclo(Cys-Glu-His-D-Phe-Arg-Trp-Cys)-NH2 (peptide)”, the Ki was determined as 124 nM.

“Hydantoin(C(O)-(Gly-D-Arg))-cyclo(Cys-Glu-His-D-Phe-Arg-Trp-Cys)-NH2 (peptide)” had a Ki of 78 nM.

The target of the next test is human melanocortin-4 receptor (human) (UniProt P32245). Described as above.
human melanocortin-4 receptor (human), sequence (P32245 whole entry): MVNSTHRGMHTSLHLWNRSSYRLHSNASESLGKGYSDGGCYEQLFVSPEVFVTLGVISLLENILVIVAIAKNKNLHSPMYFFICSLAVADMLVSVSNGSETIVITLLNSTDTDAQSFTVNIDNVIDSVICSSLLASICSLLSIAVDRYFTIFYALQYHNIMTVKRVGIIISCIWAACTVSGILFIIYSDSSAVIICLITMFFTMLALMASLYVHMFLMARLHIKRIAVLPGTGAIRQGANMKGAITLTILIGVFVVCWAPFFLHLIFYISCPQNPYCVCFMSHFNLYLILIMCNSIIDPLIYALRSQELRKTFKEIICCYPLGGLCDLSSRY
“cyclo[Hydantoin(C(O)-(Asp-A3c))-D-2-Nal-Arg-Trp-Lys]-NH2 (peptide)”: the Ki was 420 nM.

“cyclo[Hydantoin(C(O)-(Asp-Aic))-D-2-Nal-Arg-Trp-Lys]-NH2 (peptide)” gave a Ki of 35.8 nM.

For the substance “cyclo[Hydantoin(C(O)-(Asp-D-Ala))-His-D-Phe-Arg-Trp-Orn]-NH2 (peptide)”, the Ki came to 7.81 nM.

Take “Hydantoin(C(O)-(Nle-Gly))-cyclo(Cys-D-Ala-His-D-Phe-Arg-Trp-Pen)-NH2 (peptide)”: the Ki was found to be 3.53 nM.

With “cyclo[Hydantoin(C(O)-(Asp-Apc))-D-2-Nal-Arg-Trp-Lys]-NH2 (peptide)”, the Ki worked out at 266 nM.

“cyclo[Hydantoin(C(O)-(Glu-D-Ala))-His-D-Phe-Arg-Trp-Orn]-NH2 (peptide)” returned a Ki of 52.4 nM.

The substance “cyclo[Hydantoin(C(O)-(Glu-D-Ala))-His-D-Phe-Arg-Trp-Dap]-NH2 (peptide)” came in with a Ki of 4.97 nM.

The substance “cyclo[Hydantoin(C(O)-(Glu-D-Ala))-His-D-Phe-Arg-Trp-Dab]-NH2 (peptide)” yielded a Ki of 12.7 nM.

On to “cyclo[Hydantoin(C(O)-(Asp-D-Ala))-His-D-Phe-Arg-Trp-Dap]-NH2 (peptide)”, for which the Ki was 19.9 nM.

Regarding “cyclo[Hydantoin(C(O)-(Asp-A6c))-D-2-Nal-Arg-Trp-Lys]-NH2 (peptide)”, the Ki was determined as 16.5 nM.

The substance “Hydantoin(C(O)-(D-Arg-Gly))-cyclo(Cys-Glu-His-D-Phe-Arg-Trp-Cys)-NH2 (peptide)” yielded a Ki of 2.95 nM.

For the substance “Hydantoin(C(O)-(Gly-D-Arg))-cyclo(Cys-Glu-His-D-Phe-Arg-Trp-Cys)-NH2 (peptide)”, the inhibition constant Ki was 1.77 nM.

The target in the next test is human melanocortin-1 receptor (human) (UniProt Q01726). The description is as above.
human melanocortin-1 receptor (human), sequence (Q01726 whole entry): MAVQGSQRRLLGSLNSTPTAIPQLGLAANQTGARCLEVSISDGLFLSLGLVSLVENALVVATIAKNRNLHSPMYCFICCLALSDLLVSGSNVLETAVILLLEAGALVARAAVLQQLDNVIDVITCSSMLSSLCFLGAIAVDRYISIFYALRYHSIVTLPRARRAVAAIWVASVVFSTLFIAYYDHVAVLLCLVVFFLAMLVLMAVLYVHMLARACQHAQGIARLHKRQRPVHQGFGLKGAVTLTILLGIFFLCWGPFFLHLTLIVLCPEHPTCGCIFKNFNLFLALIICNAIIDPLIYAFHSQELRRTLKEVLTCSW
“cyclo[Hydantoin(C(O)-(Asp-A3c))-D-2-Nal-Arg-Trp-Lys]-NH2 (peptide)” registered a Ki of 7570 nM.

In the case of “cyclo[Hydantoin(C(O)-(Asp-Aic))-D-2-Nal-Arg-Trp-Lys]-NH2 (peptide)”, the Ki amounted to 9030 nM.

With “cyclo[Hydantoin(C(O)-(Asp-D-Ala))-His-D-Phe-Arg-Trp-Orn]-NH2 (peptide)”, the Ki was determined as 37.7 nM.

In turn, “Hydantoin(C(O)-(Nle-Gly))-cyclo(Cys-D-Ala-His-D-Phe-Arg-Trp-Pen)-NH2 (peptide)” yielded a Ki of 12.9 nM.

The substance “cyclo[Hydantoin(C(O)-(Asp-Apc))-D-2-Nal-Arg-Trp-Lys]-NH2 (peptide)” showed a Ki of 1280 nM.

“cyclo[Hydantoin(C(O)-(Glu-D-Ala))-His-D-Phe-Arg-Trp-Orn]-NH2 (peptide)” returned a Ki of 60.4 nM.

The substance “cyclo[Hydantoin(C(O)-(Glu-D-Ala))-His-D-Phe-Arg-Trp-Dap]-NH2 (peptide)” displayed a Ki of 16.4 nM.

In turn, “cyclo[Hydantoin(C(O)-(Glu-D-Ala))-His-D-Phe-Arg-Trp-Dab]-NH2 (peptide)” showed a Ki of 28 nM.

For the substance “cyclo[Hydantoin(C(O)-(Asp-D-Ala))-His-D-Phe-Arg-Trp-Dap]-NH2 (peptide)”, the Ki was determined as 66.6 nM.

“cyclo[Hydantoin(C(O)-(Asp-A5c))-D-2-Nal-Arg-Trp-Lys]-NH2 (peptide)” had a Ki of 9940 nM.

On to “cyclo[Hydantoin(C(O)-(Asp-His))-D-2-Nal-Arg-Trp-Lys]-NH2 (peptide)”, for which the Ki is 200 nM.

For “cyclo[Hydantoin(C(O)-(Asp-A6c))-D-2-Nal-Arg-Trp-Lys]-NH2 (peptide)”, the Ki turned out to be 2170 nM.

“Hydantoin(C(O)-(D-Arg-Gly))-cyclo(Cys-Glu-His-D-Phe-Arg-Trp-Cys)-NH2 (peptide)” returned a Ki of 9.49 nM.

As for “Hydantoin(C(O)-(Gly-D-Arg))-cyclo(Cys-Glu-His-D-Phe-Arg-Trp-Cys)-NH2 (peptide)”, the Ki amounted to 4.3 nM.

In a further test the target is human melanocortin-5 receptor (human) (UniProt P33032). Put plainly: cell-based or functional assay.
Consider “Hydantoin(C(O)-(Nle-Gly))-cyclo(Cys-D-Ala-His-D-Phe-Arg-Trp-Pen)-NH2 (peptide; unit assumed)”, for which the EC50, intracellular cyclic AMP (cAMP) levels turned out to be 0.352 µM.

Substance “cyclo[Hydantoin(C(O)-(Asp-D-Ala))-His-D-Phe-Arg-Trp-Orn]-NH2 (peptide; unit assumed)” had an EC50, intracellular cyclic AMP (cAMP) levels of 9.3 µM.

In turn, “cyclo[Hydantoin(C(O)-(Glu-D-Ala))-His-D-Phe-Arg-Trp-Dap]-NH2 (peptide; unit assumed)” came in with an EC50, intracellular cyclic AMP (cAMP) levels of over 10 µM.

For the substance “Hydantoin(C(O)-(D-Arg-Gly))-cyclo(Cys-Glu-His-D-Phe-Arg-Trp-Cys)-NH2 (peptide; unit assumed)”, the EC50, intracellular cyclic AMP (cAMP) levels worked out at 2.71 µM.

The substance “Hydantoin(C(O)-(Gly-D-Arg))-cyclo(Cys-Glu-His-D-Phe-Arg-Trp-Cys)-NH2 (peptide; unit assumed)” yielded an EC50, intracellular cyclic AMP (cAMP) levels of 7.44 µM.

A further test has as its target human melanocortin-3 receptor (human) (UniProt P41968). Description: cell-based or functional assay.
Consider “Hydantoin(C(O)-(Nle-Gly))-cyclo(Cys-D-Ala-His-D-Phe-Arg-Trp-Pen)-NH2 (peptide; unit assumed)”, for which the EC50, intracellular cyclic AMP (cAMP) levels came out at 21.5 nM.

As to “cyclo[Hydantoin(C(O)-(Glu-D-Ala))-His-D-Phe-Arg-Trp-Dap]-NH2 (peptide; unit assumed)”, the EC50, intracellular cyclic AMP (cAMP) levels stood at 18.2 nM.

Take “cyclo[Hydantoin(C(O)-(Asp-D-Ala))-His-D-Phe-Arg-Trp-Dap]-NH2 (peptide; unit assumed)”: the EC50, intracellular cyclic AMP (cAMP) levels was 49.3 nM.

“cyclo[Hydantoin(C(O)-(Asp-D-Ala))-His-D-Phe-Arg-Trp-Orn]-NH2 (peptide)” had an EC50, intracellular cyclic AMP (cAMP) levels of 88.6 nM.

For the substance “cyclo[Hydantoin(C(O)-(Glu-D-Ala))-His-D-Phe-Arg-Trp-Orn]-NH2 (peptide; unit assumed)”, the EC50, intracellular cyclic AMP (cAMP) levels worked out at 39.2 nM.

Substance “Hydantoin(C(O)-(D-Arg-Gly))-cyclo(Cys-Glu-His-D-Phe-Arg-Trp-Cys)-NH2 (peptide; unit assumed)” displayed an EC50, intracellular cyclic AMP (cAMP) levels of 17.1 nM.

“Hydantoin(C(O)-(Gly-D-Arg))-cyclo(Cys-Glu-His-D-Phe-Arg-Trp-Cys)-NH2 (peptide; unit assumed)” displayed an EC50, intracellular cyclic AMP (cAMP) levels of 10.3 nM.

The target of another test is human melanocortin-4 receptor (human) (UniProt P32245). Put plainly: cell-based or functional assay.
The substance “Hydantoin(C(O)-(Nle-Gly))-cyclo(Cys-D-Ala-His-D-Phe-Arg-Trp-Pen)-NH2 (peptide; unit assumed)” came in with an EC50, intracellular cyclic AMP (cAMP) levels of 0.584 nM.

In turn, “cyclo[Hydantoin(C(O)-(Asp-D-Ala))-His-D-Phe-Arg-Trp-Orn]-NH2 (peptide; unit assumed)” returned an EC50, intracellular cyclic AMP (cAMP) levels of 4.5 nM.

Substance “cyclo[Hydantoin(C(O)-(Glu-D-Ala))-His-D-Phe-Arg-Trp-Dap]-NH2 (peptide; unit assumed)” registered an EC50, intracellular cyclic AMP (cAMP) levels of 0.182 nM.

“cyclo[Hydantoin(C(O)-(Asp-D-Ala))-His-D-Phe-Arg-Trp-Dap]-NH2 (peptide; unit assumed)” gave an EC50, intracellular cyclic AMP (cAMP) levels of 2.12 nM.

The substance “cyclo[Hydantoin(C(O)-(Glu-D-Ala))-His-D-Phe-Arg-Trp-Orn]-NH2 (peptide; unit assumed)” returned an EC50, intracellular cyclic AMP (cAMP) levels of 4.94 nM.

Turning to “Hydantoin(C(O)-(D-Arg-Gly))-cyclo(Cys-Glu-His-D-Phe-Arg-Trp-Cys)-NH2 (peptide; unit assumed)”, the EC50, intracellular cyclic AMP (cAMP) levels was 0.16 nM.

In turn, “Hydantoin(C(O)-(Gly-D-Arg))-cyclo(Cys-Glu-His-D-Phe-Arg-Trp-Cys)-NH2 (peptide; unit assumed)” showed an EC50, intracellular cyclic AMP (cAMP) levels of 0.125 nM.

The target of a further test is human melanocortin-1 receptor (human) (UniProt Q01726). Put plainly: cell-based or functional assay.
The substance “Hydantoin(C(O)-(Nle-Gly))-cyclo(Cys-D-Ala-His-D-Phe-Arg-Trp-Pen)-NH2 (peptide; unit assumed)” gave an EC50, intracellular cyclic AMP (cAMP) levels of 17 nM.

In turn, “cyclo[Hydantoin(C(O)-(Asp-D-Ala))-His-D-Phe-Arg-Trp-Orn]-NH2 (peptide; unit assumed)” returned an EC50, intracellular cyclic AMP (cAMP) levels of 56.6 nM.

Substance “cyclo[Hydantoin(C(O)-(Glu-D-Ala))-His-D-Phe-Arg-Trp-Dap]-NH2 (peptide; unit assumed)” displayed an EC50, intracellular cyclic AMP (cAMP) levels of 56.7 nM.

On to “Hydantoin(C(O)-(D-Arg-Gly))-cyclo(Cys-Glu-His-D-Phe-Arg-Trp-Cys)-NH2 (peptide; unit assumed)”, for which the EC50, intracellular cyclic AMP (cAMP) levels was 18 nM.

Substance “Hydantoin(C(O)-(Gly-D-Arg))-cyclo(Cys-Glu-His-D-Phe-Arg-Trp-Cys)-NH2 (peptide; unit assumed)” registered an EC50, intracellular cyclic AMP (cAMP) levels of 12.9 nM.
